The record followed here is FireProtDB (doi:10.1021/bi960855h).

The conditions of the series: Bos taurus, Thermal, DSC, NaCl 200 mM, reversible: yes, whole UniProt chain shown.
Setting [1] is: pH 4, Acetic acid-Sodium acetate 10 mM.
The mark [2] stands for this setting: pH 5, Acetic acid-Sodium acetate 10 mM.

B1: Ribonuclease pancreatic wild type, P61823 (protein)
chain: MALKSLVLLSLLVLVLLLVRVQPSLGKETAAAKFERQHMDSSTSAASSSNYCNQMMKSRNLTKDRCKPVNTFVHESLADVQAVCSQKNVACKNGQTNCYQSYSTMSITDCRETGSSKYPNCAYKTTQANKHIIVACEGNPYVPVHFDASV
The term Tm denotes the temperature at which the thermal transition is half complete. Turning to B1, the midpoint of thermal melting (Tm) by setting is: under setting [1], 44.6 °C; under setting [2], 45.5 °C; (pH 6, MES 10 mM) 46.8 °C; (pH 6.5, MES 10 mM) 47.2 °C; (pH 7, MOPS 10 mM) 50.1 °C; (pH 7.5, MOPS 10 mM) 50.6 °C. Also, the “heat capacity change of unfolding” value reads like this: under setting [1], 1.24 kcal/mol/K; under setting [2], 1.2 kcal/mol/K; (pH 6, MES 10 mM) 1.17 kcal/mol/K; (pH 6.5, MES 10 mM) 1.22 kcal/mol/K; (pH 7, MOPS 10 mM) 1.22 kcal/mol/K; (pH 7.5, MOPS 10 mM) 1.2 kcal/mol/K. Further, the “unfolding enthalpy (calorimetric)” value reads like this: under setting [1], 94.5 kcal/mol; under setting [2], 95.7 kcal/mol; (pH 6, MES 10 mM) 98.1 kcal/mol; (pH 6.5, MES 10 mM) 99.3 kcal/mol; (pH 7, MOPS 10 mM) 103 kcal/mol; (pH 7.5, MOPS 10 mM) 104 kcal/mol. The “unfolding enthalpy (van 't Hoff)” value is, setting by setting: under setting [1], 98.1 kcal/mol; under setting [2], 96.9 kcal/mol; (pH 6, MES 10 mM) 100 kcal/mol; (pH 6.5, MES 10 mM) 100 kcal/mol; (pH 7, MOPS 10 mM) 102 kcal/mol; (pH 7.5, MOPS 10 mM) 105 kcal/mol.
